# Laboratory results reported in the nanobody polyreactivity screen of Harvey et al. (2022).
# Experiment: yeast display, Sf9 membrane polyspecificity reagent, FACS + sequencing; frameworks hold sequencing errors
# Method in brief: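 Nanobodies from a synthetic yeast display library (Saccharomyces cerevisiae BJ5465), induced 36–48 hours with galactose, were stained 1 hour at 4 °C with 10% biotinylated, detergent-solubilized Sf9 membrane reagent, enriched on streptavidin microbeads, then FACS-sorted. Anti-HA (expression) and streptavidin (reagent binding) fluorescence set low and high (top ~1%) gates. Polyreactivity labels come from the gate of origin. Genes were colony-PCR amplified, MiSeq 2 × 250 sequenced and filtered by CDR length.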
row,Sequence,polyreactivity (PSR sort gate)
1,QVQLVESGGGLVQAGGSLRLSCAASGSIFRSYAMGWYRQAPGKERELVAGISYSGGSTYYADSVKGRFTISRDNAKNTVYLQMNSLKPEDTAVYYCNTRTGAFFLSKPYDYWGQGTQVTVSS,low polyreactivity
2,QVQLVESGGGLVQAGGSLRLSCAASGSIFRSYAMGWYRQAPGKERELVASISRRGGSTYYADSVKGRFTISRDNAKNTVYFQMNSLKPEDTAVYYCAAVRYNSRVSTTPSEMYYWGQGTLVTVSS,low polyreactivity
3,QVQLVESGGGLVQAGGSLRLSCAASGSIFRSYDMGMYRQAPGKERELVADITRTGGNTYYADSVKGRFTISRDNAKNTVYLQMNSLKPEDTAVYYCAATYILTVSVFSYVWPYDYWGQGTQVTVSS,high polyreactivity
4,QVQLVESGGGLVQAGGSLRLSCAASGSIFRSYTMGWYRQAPGKEREFVAAITKRGGSTYYADSVKGRFTISRDNAKNTVYLQMNSLKPEDTAVYYCAAVAGHYYYFRELGYWGQGTQVTVSS,high polyreactivity
5,QVQLVESGGGLVQAGGSLRLSCAASGSIFRSYVMGWSRQAPGKERELVAAISRRGVRTFYADSVKGRFTISRDNAKNTVYLQMNSLKPEDTAVYYCAAQPYKGTGYDYWGQGTQVTVSS,high polyreactivity
6,QVQLVESGGGLVQAGGSLRLSCAASGSIFRTYAMGWYRQSPGKERELVAAITSDGSTYYADSVKGRFTISRDNAKNTVYLKMNRLKPEDTAVYYFAAASQEYDYHYYYWGQGTQVTVSS,low polyreactivity
7,QVQLVESGGGLVQAGGSLRLSCAASGSIFRVNAMGWYRQAPGKERELVAAISRRGGRRYYADSVKGRFTISRDNAKNTVYLQMNSLKPEDTAVYYCAAGVSVSASPYNGFDYWGQGTQVTVSS,high polyreactivity
8,QVQLVESGGGLVQAGGSLRLSCAASGSIFRVYAMGWYRQAPGKERELVASISRRGGSTYYADSVKGRFTISRDNAKNTVYLQMNSLKPEDTAVYYCAAEFVIGGHGYDYWGQGTQVTVSS,high polyreactivity
9,QVQLVESGGGLVQAGGSLRLSCAASGSIFRVYAMGWYRQAPGKERELVAVGSTYYADSVKGRFTISRDNAKNTVYLQMNSLKPEDTAVYYCARRGKSRYSYHYWGQGTQVTVSS,high polyreactivity
10,QVQLVESGGGLVQAGGSLRLSCAASGSIFRVYMGWYRQAPGKERALVATIRWSSGSTYYADSVKGRFTISRDNAKNTVYLQMNSLKPEDTAVYYCAVKGPYYDDYDYWGQGTQGTVSS,low polyreactivity
11,QVQLVESGGGLVQAGGSLRLSCAASGSIFRWYAMGWYRQAPGKERELVAAISKSGGTTYYADSVKGRFTISRDNAKNTVYLQMNSLKPEDTAVYYCAARRYPYGGYGYRYDYWGQGTQVTVSS,high polyreactivity
12,QVQLVESGGGLVQAGGSLRLSCAASGSIFRWYAMGWYRQAPGKERELVAAITWSASRTYYADSVKGRFTISRDTAKNTVYLQMNSLKPEDTAVYYCAADHDGPYAGYDSWRQGTQVTVSS,low polyreactivity
13,QVQLVESGGGLVQAGGSLRLSCAASGSIFRYNAMGWYIQAPGKERELVAAISWNGARTYYADSVKGRFTISRDNAKNTVYLQMNSLKPEDTAVYYCNAGTFTRRRGLDYWGQGTQVTVSS,low polyreactivity
14,QVQLVESGGGLVQAGGSLRLSCAASGSIFRYNAMGWYRPAPGTERELVAAITSGDSTYYADSVKGRFTISRDNAKNTVYLHMNSLKPEDTAVYYCARRSYATYSFRFDYWGQGTQVTVSS,low polyreactivity
15,QVQLVESGGGLVQAGGSLRLSCAASGSIFRYNAMGWYRQAPGTEREVVAGITSGGDTNYADSVKGRFTISRDNAKNTVYLQMNSLKPEDTAVYYCAKRWYGGRRYDYWGQGTQVTVSS,low polyreactivity
16,QVQLVESGGGLVQAGGSLRLSCAASGSIFRYNTKGWYRQATGKERELDAAINWSGGNTYYADSVKGRFTISRDNAKNTVYLQMNSLKPEDTAVYYCAARWPSYVSYRYYTKYDYWGQGTQVTVSS,high polyreactivity
17,QVQLVESGGGLVQAGGSLRLSCAASGSIFRYNTMGWYRQAPGKVRELVATITRRGGSTYYADSVKGRFTISRDNAKNTVYLQMNSVKPEDTAVYYCIADNFGGPYNYWGQGTQVTVSS,low polyreactivity
18,QVQLVESGGGLVQAGGSLRLSCAASGSIFRYYAKGWSRQAPGKERELVAAISRSGGSTYYADSVKGRFTISRDNAKNTVYLQMKSLKPEDTAVYYCAAEYRVRAQGYVYWGQGTQVTVSS,high polyreactivity
19,QVQLVESGGGLVQAGGSLRLSCAASGSIFRYYAMGWYIQAPGKEMELVAAITSSGGSTYYADSVKGRFTISRDNAKNTVYLQMNSLKPEDTAVYDCNARHVRYSRRENDYWGQGTQGTVSS,high polyreactivity
20,QVQLVESGGGLVQAGGSLRLSCAASGSIFRYYAMGWYRPAPGKERELVAAISSRGGRTYYADSVKGRFTISRDNAKNTVYLQMNSLIPEDTAVYYCAARRYRYTTPFRYGYDYWGQGTQVTVSS,high polyreactivity
21,QVQLVESGGGLVQAGGSLRLSCAASGSIFRYYAMGWYRPAPGKERELVARISATGASTYYADSVKGRFTISRDNAKNTVYLQMNSLKPEDTAVYYCAAGGRSRWGRYSPYDYWGQGTQVTVSS,high polyreactivity
22,QVQLVESGGGLVQAGGSLRLSCAASGSIFRYYAMGWYRQAHGKERELVAVITSSGTSTYYADSVKGRFTISRDNAKNTVYLQMNSRKPEDTAVDYCAVYPIIYGRMDSWGQGTQVTVSS,low polyreactivity

row,Sequence,polyreactivity (PSR sort gate)
1,QVQLVESGGGLVQAGGSLRLSCAASGSIFRYYAMGWYRQAPGKEREFDASITYRGGRTYYADSVKGRFTISRDNAKNTVYLQMNSLKPEDTAVYYCAARTRAGAWTSKYHDYWGQGTQVTVSS,high polyreactivity
2,QVQLVESGGGLVQAGGSLRLSCAASGSIFRYYAMGWYRQAPGKERELVAAISSNGGSTYYADSVKGRFTISRDNAKNTVYLQMNSLKPEDTAVYYCAALFRRAPGYYWGQGTQVTVSS,high polyreactivity
3,QVQLVESGGGLVQAGGSLRLSCAASGSIFRYYAMGWYRQAPGKERELVASISSGAGSTYYADSVKGRFTISRDNAKNTVYLQMNSLKPEDTAVYYCAARPGYSAFYYWGQGTQVTVSS,high polyreactivity
4,QVQLVESGGGLVQAGGSLRLSCAASGSIFRYYAMGWYRQAPGKERELVASITRRGGSTYYADSVKGRFTISRDNAKNTVYLQMTSLKPEDTAVYYCAAHKTYVRDYYWGQGTQVTVSS,high polyreactivity
5,QVQLVESGGGLVQAGGSLRLSCAASGSIFRYYAMGWYRQAPWKERELVADISSGGSTYYADSVKGRFTISRDNAKNTVNLQMISQKPEDTAVYYCNDDYYAYPWTNDYWGQGTQVTVTS,high polyreactivity
6,QVQLVESGGGLVQAGGSLRLSCAASGSIFRYYDMGWYRQAPGKERELVAAISDSTGTTYYADSVKGRFSISRDNAKNTVYLQMNSLKPEDTSVDYCTAGYDPRYDYWGQGTQVTVSS,high polyreactivity
7,QVQLVESGGGLVQAGGSLRLSCAASGSIFSANAMGWYRQAPGKERELVAAINSGGGTYYADSVKGRFTISRDNAKNTVFLQMNSLKPEDTAVYYCATDAVYIKGKYYTHEYWGQGTQVTVSS,high polyreactivity
8,QVQLVESGGGLVQAGGSLRLSCAASGSIFSANAMGWYRQAPGKERELVAAISDGGAATYYADSVKGRFTISRDNAKHTVYLQMNSLKPEDTAVYYCIADDAFWTVVDGNWRYEYDYWGQGTQVTVSS,low polyreactivity
9,QVQLVESGGGLVQAGGSLRLSCAASGSIFSANARGWYRQAPGKERELVASITGDGSTNYADSVKGRFTISRDNAKNPGYLQMNSLKPEDTAVYYCAADIGSWYDYWGQGTQVTGSS,low polyreactivity
10,QVQLVESGGGLVQAGGSLRLSCAASGSIFSAYAMGWSRQAPGKERELVASITTDGGITYYADSVKGRFTISRDNAKNTVYLQMNSLKPEDTAVYYCAVLQYYYPYYYWGQGTQVTVSS,low polyreactivity
11,QVQLVESGGGLVQAGGSLRLSCAASGSIFSAYAMGWYRQAPGKEREFVASITWSGGSTYYADSVKGRFTISRDNAKNTVYLQMNSLKPEDTAVYYCAAVYVTWYNNYEYWGQGTQVTVSS,high polyreactivity
12,QVQLVESGGGLVQAGGSLRLSCAASGSIFSAYAMGWYRQAPGKERELVAAISSRGGSTYYADSVKGRFTISRDNAKNTVYLQMNSLKPEDTAVDYCAARVRHSAYDYWGQGTQVTVSS,high polyreactivity
13,QVQLVESGGGLVQAGGSLRLSCAASGSIFSAYAMGWYRQAPGKERELVAAITKSSVTYYADSVKGRFTISRDNAKNTVYLQMNSLKPEDTAVYYCAAYSPRPSDLYSPIAYYYWGQGTQVTVSS,low polyreactivity
14,QVQLVESGGGLVQAGGSLRLSCAASGSIFSFNAMGWYRQAPGKERELVAAISWRGASTYYADSVKGRFTISRDNAKNTVYLQMNSLKPEDTAVYYCAAESTFILQYSYIYYDGHYDYWGQGTQVTVSS,low polyreactivity
15,QVQLVESGGGLVQAGGSLRLSCAASGSIFSFYAMVWYRQAPGKERELVADISLTTDSTYADSVKGRFTISRDNAKNTVYLQMNSLKPEDTAVYYCAADFFGTITWYDYWGQGTQVTVSS,low polyreactivity
16,QVQLVESGGGLVQAGGSLRLSCAASGSIFSFYAVGWYRQAPGKERELVAALSSGGSTYYADSVKGRFTISGDNAKNTVYLQMNSLIPEDTAVYYCAADPYRYNFRAYGWYREGYYWGQGTQVTVSS,low polyreactivity
17,QVQLVESGGGLVQAGGSLRLSCAASGSIFSGNAMGWYRQAPGKERELVAAISRSGTSTYYADSVKGRFTISRDNAKNTVYFQMNSLKPEDTAVYYCNARSYYTLRSDFYYWGQGTQVTVSS,high polyreactivity
18,QVQLVESGGGLVQAGGSLRLSCAASGSIFSGNAMGWYRQAPGKERELVAAISSNGGRTYYADSVKGRFTISRDNAKNTVYLQMNSLKPEDTAVYYCAADSGKRRYGYYYWGQGTQVTVSS,high polyreactivity
19,QVQLVESGGGLVQAGGSLRLSCAASGSIFSGNAMGWYRQAPGKERELVASINRSGGSTYYADSVKGRFTISRDNAKNTVYLQMNSLKTEDTAVYYCAARRVWLAGYDSWGQGTQVTVSS,low polyreactivity
20,QVQLVESGGGLVQAGGSLRLSCAASGSIFSGNPMGWYRQAPGKERELVAAIDWSGDSTYYADSVKGRFTISRDNAKNTVYLQMNSLKPEDTAVYYCNTVSFSWGYSAYDYWGQGTQVTVSS,low polyreactivity
21,QVQLVESGGGLVQAGGSLRLSCAASGSIFSGNTMGWYRQAPGKERELVAAISKSGGSTYYADSVKGRFTISRDNAKNTVYLQINSLKPEDTAVYYCAVRIRSRVANPGYRWGFNYWGQGTQVTVSS,high polyreactivity
